Test [1] addresses Histone H3 recombinant protein, human, Upstate 14-494 (human) (UniProt P68431). The experiment in a line: RPA standard curves, mean of duplicate assays.
The target of test [2] is Histone H3-BSA 2.7x peptide-protein conjugate (bovine). Briefly: RPA standard curves, mean of duplicate assays.
For test [3], the target named is pErk1/2-BSA 2.7x peptide-protein conjugate (human; bovine). The experiment in a line: RPA, 8 point dilution series of the peptide standard in buffer, assay 1.
Sequence of pErk1/2-BSA 2.7x peptide-protein conjugate (human; bovine) (P02769 25-607 limits assumed): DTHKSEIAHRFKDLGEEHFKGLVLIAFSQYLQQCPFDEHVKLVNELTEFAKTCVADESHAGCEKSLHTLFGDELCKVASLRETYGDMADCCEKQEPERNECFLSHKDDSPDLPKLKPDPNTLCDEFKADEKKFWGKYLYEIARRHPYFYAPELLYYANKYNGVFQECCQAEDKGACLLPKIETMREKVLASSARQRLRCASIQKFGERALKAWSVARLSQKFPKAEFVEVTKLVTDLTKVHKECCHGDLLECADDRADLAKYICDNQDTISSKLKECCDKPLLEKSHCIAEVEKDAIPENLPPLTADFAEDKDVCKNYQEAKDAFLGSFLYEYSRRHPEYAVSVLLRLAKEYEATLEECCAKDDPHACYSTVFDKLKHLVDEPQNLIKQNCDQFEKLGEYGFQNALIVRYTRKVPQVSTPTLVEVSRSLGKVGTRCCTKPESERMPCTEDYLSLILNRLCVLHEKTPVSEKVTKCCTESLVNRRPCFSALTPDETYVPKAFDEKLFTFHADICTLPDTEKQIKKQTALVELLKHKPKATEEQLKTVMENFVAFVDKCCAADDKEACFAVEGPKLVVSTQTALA
The target in test [4] is Erk1-BSA 2.7x peptide-protein conjugate (human; bovine). The experiment in a line: RPA standard curves, mean of duplicate assays.
Sequence of Erk1-BSA 2.7x peptide-protein conjugate (human; bovine) (peptide, as listed by the source limits assumed, chain 1 of 2): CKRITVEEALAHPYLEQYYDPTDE
Sequence of Erk1-BSA 2.7x peptide-protein conjugate (human; bovine) (P02769 25-607 limits assumed, chain 2 of 2): as the sequence (P02769 25-607 limits assumed) above
Test [5] addresses ERK1 (p44) inactive (GST tagged), human, Invitrogen PV 3312 (human) (UniProt P27361). The experiment in a line: RPA standard curves, mean of duplicate assays.
Sequence of UniProt P27361 (P27361 whole entry): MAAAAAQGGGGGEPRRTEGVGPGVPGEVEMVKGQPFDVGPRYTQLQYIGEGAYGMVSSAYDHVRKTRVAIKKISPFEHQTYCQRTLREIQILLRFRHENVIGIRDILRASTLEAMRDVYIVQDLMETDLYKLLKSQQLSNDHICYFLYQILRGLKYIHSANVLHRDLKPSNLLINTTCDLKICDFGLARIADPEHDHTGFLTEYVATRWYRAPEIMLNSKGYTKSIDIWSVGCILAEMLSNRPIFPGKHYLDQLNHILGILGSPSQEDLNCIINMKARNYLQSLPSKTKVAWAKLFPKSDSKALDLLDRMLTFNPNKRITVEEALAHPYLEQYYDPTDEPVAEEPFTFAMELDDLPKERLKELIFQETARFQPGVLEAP
In test [6] the target is Histone H3 recombinant protein, calf, Roche 11 034 758 001 (calf) (UniProt P68432). Briefly: RPA, competition: +free pErk1/2 peptide 100 nM.
The target of test [7] is pErk1/2-BSA 2.7x peptide-protein conjugate (human; bovine). The experiment in a line: RPA, normal assay.
The target is the same in test [8]. The experiment in a line: RPA standard curves, mean of duplicate assays.

Sequence of Histone H3-BSA 2.7x peptide-protein conjugate (bovine) (P02769 25-607 limits assumed): as the sequence (P02769 25-607 limits assumed) above

As to Histone H3 antibody, Abcam ab1791, the mean LOD stood at 0.156 nM in test [1] and 0.123 nM in test [2].
For the substance “p44/42 MAPK (Erk1/2) antibody, Biosource 44-654G”, the mean signal (standard curve) in test [3] stood at 0.01 RFI. The results for the mean LOD in test [4] and in test [5] were 0.046 nM and 0.072 nM, respectively.
As to “p44/42 MAPK phospho (pERK1/2) Thr202/Tyr204 antibody, Cell Signaling Technology #9101”, the maximum standard curve signal came to 0.01 RFI in test [6] and 3.47 RFI in test [7]. In test [8], this substance registered a mean LOD of 0.03 nM.

(Values after patent US20120220489A1.)
